How the values were obtained:
[1] = biological target: T1, Vif/EloB/C/CBFβ quaternary complex (full-length HIV-1 HXB2 Vif(1-192) / ElonginB 1-118 / ElonginC 17 (HIV-1 HXB2; human), P69720; test: fluorescence anisotropy, complex titrated into 25 nM 5-FAM peptide; Sd ± 7.0
[2] = biological target: T1, Vif/EloB/C/CBFβ quaternary complex …; test: fluorescence anisotropy, complex titrated into 25 nM 5-FAM peptide; Sd ± 0.1
[3] = biological target: T1, Vif/EloB/C/CBFβ quaternary complex …; test: fluorescence anisotropy, complex titrated into 25 nM 5-FAM peptide; Sd ± 1.0
[4] = biological target: T1, Vif/EloB/C/CBFβ quaternary complex …; test: fluorescence anisotropy, complex titrated into 25 nM 5-FAM peptide; Sd ± 4.2

B1: Cul5(30-40) peptide (peptide)
peptide: LRQESVTKQQW
modifications: not checked
With B1 the Kd [1] was 16 µM.

B2: Cul5(43-54) peptide (peptide)
peptide: LFSDVHAVCLWD
modifications: not checked
Work on B2 yielded a Kd [2] of 2.5 µM.

B3: Cul5(43-65) peptide (peptide)
peptide: LFSDVHAVCLWDDKGPAKIHQAL
modifications: not checked
Binder B3 has a Kd [3] of 4.7 µM.

B4: Cul5(37-48) peptide (peptide)
peptide: KQQWFDLFSDVH
modifications: not checked
In the case of B4, the Kd [4] is reported as 15.6 µM.

B5: Cul5(37-53) peptide (peptide)
peptide: KQQWFDLFSDVHAVCLW
modifications: not checked
Work on B5 yielded a Kd [2] of 1.2 µM.

— US20150268247A1, “Assay for Screening of Anti-Viral Compounds That Inhibit Specific Interaction Interfaces Between Cullin5 and an ElonginB/ElonginC/ CBF-beta/HIV-1 Vif Complex” (UNIVERSITY OF ROCHESTER, priority 2012, published 2015)
